Results: patent publication US20240199762A1 (PHILOGEN S P A, published 2024)

Experiments:
[1] = molecular target: T1, human FAP expressed on transduced cells (SKRC52-hFAP, HT-1080-hFAP) (human, UniProt Q12884 1-760); assay: flow cytometry on HT-1080-hFAP and SKRC52-hFAP cells against wild-type cells
T1 construct: whole, on cells; Also the target in SKRC52-hFAP tumor cryosections and in tumors of tumor-bearing mice; also called cell-expressed human FAP
T1 sequence (looked up): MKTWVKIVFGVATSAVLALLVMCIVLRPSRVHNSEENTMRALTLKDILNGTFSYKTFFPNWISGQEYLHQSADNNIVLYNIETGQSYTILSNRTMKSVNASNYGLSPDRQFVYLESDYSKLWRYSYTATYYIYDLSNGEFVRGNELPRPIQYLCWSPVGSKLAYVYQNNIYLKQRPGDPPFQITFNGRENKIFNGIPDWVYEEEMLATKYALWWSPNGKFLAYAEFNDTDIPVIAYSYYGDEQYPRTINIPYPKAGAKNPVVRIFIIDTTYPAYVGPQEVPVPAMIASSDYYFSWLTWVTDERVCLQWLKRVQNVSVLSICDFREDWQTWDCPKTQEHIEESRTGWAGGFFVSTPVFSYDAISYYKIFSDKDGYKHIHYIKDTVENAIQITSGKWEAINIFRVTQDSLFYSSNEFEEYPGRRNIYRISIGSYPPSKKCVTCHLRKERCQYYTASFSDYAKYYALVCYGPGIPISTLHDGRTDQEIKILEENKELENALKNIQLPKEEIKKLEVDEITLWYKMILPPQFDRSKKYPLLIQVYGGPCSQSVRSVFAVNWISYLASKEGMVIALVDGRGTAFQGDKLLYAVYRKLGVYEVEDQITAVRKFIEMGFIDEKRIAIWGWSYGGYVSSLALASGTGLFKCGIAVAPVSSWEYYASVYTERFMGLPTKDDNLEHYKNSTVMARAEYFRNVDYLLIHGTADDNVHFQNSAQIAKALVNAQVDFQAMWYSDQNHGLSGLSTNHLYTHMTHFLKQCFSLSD
Experimental: The cell lines used were the human renal cell carcinoma cell line SKRC52 and the human fibrosarcoma cell line HT-1080.
Specifically, SKRC52-hFAP, SKRC52 wild-type (wt), HT-1080-hFAP and HT-1080 wt cells were detached from cell culture plates using Accutase, counted and suspended to a final concentration of 1×10⁶ cells/mL in FACS buffer (0.5% BSA, 2 mM EDTA in PBS). Cells were incubated with the 7NP2 or KSF antibodies in SIP format and binding detected using an […] (25 μg/ml), followed by staining with the anti-rat AlexaFluor488 antibody. Cells were analyzed on a CytoFLEX cytometer (Beckman Coulter). The raw data were processed using the FlowJo 10.4 software.

[2] = molecular target: T2, human FAP-ECD (extracellular domain) recombinant fragment containing a C-terminal His6 tag (human, UniProt Q12884 26-760, randomly biotinylated with NHS ester-activated biotin (as used on the SA chip and Streptawell plates)); assay: SPR, BIAcore X100, biotinylated human FAP-ECD on SA chip (1500 RU), monomeric scFv injected
T2 construct: also called biotinylated human FAP-ECD; biotinylated human FAP
T2 sequence: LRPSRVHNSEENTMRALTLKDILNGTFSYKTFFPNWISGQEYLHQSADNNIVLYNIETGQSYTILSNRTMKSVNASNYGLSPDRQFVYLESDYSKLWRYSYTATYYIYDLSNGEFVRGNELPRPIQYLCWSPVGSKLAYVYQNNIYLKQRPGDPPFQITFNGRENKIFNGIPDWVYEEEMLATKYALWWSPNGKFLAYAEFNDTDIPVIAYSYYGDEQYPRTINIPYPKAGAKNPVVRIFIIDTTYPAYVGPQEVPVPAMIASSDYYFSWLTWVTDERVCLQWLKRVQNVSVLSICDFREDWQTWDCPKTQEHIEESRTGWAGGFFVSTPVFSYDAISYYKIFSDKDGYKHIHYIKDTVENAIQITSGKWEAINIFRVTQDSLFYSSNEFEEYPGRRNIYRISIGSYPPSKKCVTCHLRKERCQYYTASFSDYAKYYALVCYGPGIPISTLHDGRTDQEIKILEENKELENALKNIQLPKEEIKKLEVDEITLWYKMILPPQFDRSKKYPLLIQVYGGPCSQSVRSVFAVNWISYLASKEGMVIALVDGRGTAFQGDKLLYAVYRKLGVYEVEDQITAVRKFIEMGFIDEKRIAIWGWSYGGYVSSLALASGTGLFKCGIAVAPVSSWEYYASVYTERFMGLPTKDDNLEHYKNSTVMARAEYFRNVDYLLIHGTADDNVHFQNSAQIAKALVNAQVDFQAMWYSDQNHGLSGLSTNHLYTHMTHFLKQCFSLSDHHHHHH
Experimental: Affinity measurements of the C5 and 7NP2 scFv antibodies were performed by Surface Plasmon Resonance using BIAcore X100 instrument with a biotinylated human FAP-ECD coated SA chip. A final coating of 1500 RU was achieved.
Samples were injected at a concentration of […], 450 nM and 225 nM for the C5 scFv and of 1350 nM, 675 nM, 338 nM and 170 nM for the 7NP2 scFv. No regeneration of the SA chip was performed between each run, scFvs were left to detach from the antigen. KD measurements were assessed using the BIAevaluation 3.2 software.

B1: anti-FAP antibody 7NP2 in SIP (small immunoprotein) format (other)
chain: EVQLLESGGGLVQPGGSLRLSCAASGFTFSSYAMSWVRQAPGKGLEWVSAIGSVGGPTYYADSVKGRFTISRDNSKNTLYLQMNSLRAEDTAVYYCAKRLAWFDYWGQGTLVTVSSGGGGSGGGGSGGGGEIVLTQSPGTLSLSPGERATLSCRASQSVSSSYLAWYQQKPGQAPRLLIYGASSRATGIPDRFSGSGSGTDFTLTISRLEPEDFAVYYCQQSGKGPLTFGQGTKVEIKSGGSGGPRAAPEVYAFATPEWPGSRDKRTLACLIQNFMPEDISVQWLHNEVQLPDARHSTTQPRKTKGSGFFVFSRLEVTRAEWEQKDEFICRAVHEAASPSQTVQRAVSVNPESSRRGGC
notes: Homodimeric mini-immunoglobulin: 77 kDa under non-reducing and 38 kDa under reducing conditions; also called 7NP2 SIP; 7NP2(SIP)
B1: binds [1].

B2: affinity-matured anti-FAP antibody 7NP2 in scFv format (scFv)
scFv: EVQLLESGGGLVQPGGSLRLSCAASGFTFSSYAMSWVRQAPGKGLEWVSAIGSVGGPTYYADSVKGRFTISRDNSKNTLYLQMNSLRAEDTAVYYCAKRLAWFDYWGQGTLVTVSSGGGGSGGGGSGGGGEIVLTQSPGTLSLSPGERATLSCRASQSVSSSYLAWYQQKPGQAPRLLIYGASSRATGIPDRFSGSGSGTDFTLTISRLEPEDFAVYYCQQSGKGPLTFGQGTKVEIK
notes: The monomeric scFv was used in BIAcore; also called 7NP2 scFv; scFv(7NP2)
B2 was tested, and the Kd [2] was 10 nM.
